According to patent publication US20190212343A1, “METHODS FOR THE TREATMENT OF DISORDERS RELATED TO PHOSPHORYLATION OF HISTONES” (H. LEE MOFFITT CANCER CENTER AND RESEARCH INSTITUTE, INC., priority 2014, published 2019):

Experiments:
SLC6A4 mRNA = SLC6A4 mRNA expression (real time RT-PCR); format: cell-based, human; details: JAR cells treated with EGF ligand
Experimental: The ratio of SLC6A4 to actin is shown. (FIG. 5D) JAR cells were treated with EGF ligand and ChIP was performed using pY99-H3 antibodies followed by quantitative PCR using primers corresponding to intron 2 (VNTR). […]
Applicant also identified for the first time that human and mouse serotonin transporter (SLC6A4 or SERT or 5-HTT) gene expression is regulated by ACK1. A novel mechanism was identified that is operational in SLC6A4 gene regulation. ACK1 deposits pY99-H3 epigenetic marks in promoter (5-HTTLPR) and intron 2 (VNTR) of SLC6A4 gene to regulate its transcription. […] Without being bound by theory, applicant believes that expression of Gabra6, Slc6a2, Slc6a4, Slc6a5 and Oxt genes as well as genes shown in Table 2 are also regulated by ACK1/pY99-H3 epigenetic activity/signaling.

[1] = tested on: histone H3 Tyr99-phosphorylation (ACK1); experiment: Histone H3 Tyr99-phosphorylation in JAR cells (immunoblotting); format: cell-based, human; details: EGF alone
Experimental: (§1) FIGS. 5A-5D show ACK1 deposits pY99-H3 epigenetic marks in SLC6A4 promoter and intron 2. (FIG. 5A) Lysates prepared from JAR cells treated with EGF ligand were subjected to immunoblotting with indicated antibodies. (FIG. 5B) Lysates prepared from JAR cells treated with EGF or AIM-100 were subjected to immunoblotting with indicated antibodies. (FIG. 5C) Total RNA was prepared from JAR cells untreated or treated with EGF ligand followed by quantitative RT-PCR using SLC6A4 and actin primers. The ratio of SLC6A4 to actin is shown. (FIG. 5D) JAR cells were treated with EGF ligand and ChIP was performed using pY99-H3 antibodies followed by quantitative PCR using primers corresponding to intron 2 (VNTR).
(§2) JAR cells are human placenta-derived epithelial cells that express SLC6A4 or SERT. Applicant first assessed presence of ACK1 signaling in JAR cells by treating these cells with EGF ligand. […] ACK1 activation was also reflected in histone H3 Tyr99-phosphorylation (FIG. SA, 2nd panel).
To validate critical role of ACK1 in histone H3 Tyr99-phosphoryation, JAR cells were treated with EGF or EGF+AIM-100.

[2] = tested on: histone H3 Tyr99-phosphorylation (ACK1); experiment: Histone H3 Tyr99-phosphorylation in HEK293 cells (pY99-H3 immunoprecipitation / H3 immunoblot); format: cell-based; details: HEK293 cells treated with EGF ligand
Experimental: FIGS. 3A-3E show Ack1 phosphoryltes H3 at Tyr99 residue. […] (FIG. 3B) HEK293 cells co-expressing Myc-tagged Ack1 (WT) or KD mutant ACK1 and FLAG-tagged H3 or Y99F mutant […] were serum-starved (24h) and lysates were immunoprecipitated with pY99-H3 antibodies followed by immunoblotting with FLAG antibody (top panel). (FIG. 3C) HEK293 cells were treated with EGF ligand for indicated time points. Equal amounts of lysates were immunoprecipitated pY99-H3 antibodies followed by with immunoblotting with H3 antibody (top panel). (FIG. 3D) HEK293 cells were treated with ACK1 inhibitor, AIM-100 (5 uM overnight) and/or EGF ligand 20 min. Equal amounts of lysates were immunoprecipitated pY99-H3 antibodies followed by with immunoblotting with H3 antibody (top panel). […] (FIG. 3E) HEK293 cells were treated with increasing concentrations of AIM-100 (1, 2, 3 and 5 μM). Equal amounts of lysates were immunoprecipitated pY99-H3 antibodies followed by with immunoblotting with H3 antibody (top panel).
The Tyrosine99 or Y99 site in H3 protein is evolutionarily conserved (FIG. 3A). To examine whether H3 is ACK1 kinase substrate, HEK293 cells were co-transfected with HA-tagged ACK1 and FLAG-tagged H3 or FLAG-tagged Y99F mutant H3 expressing constructs. ACK I specifically phosphorylated H3 protein, but not the Y99F mutant protein (FIG. 3B). […]

ACK1 = ACK1 activation (phosphorylation) in JAR cells, immunoblotting; format: cell-based, human; details: 10 min of treatment
Experimental: as §1, §2

[3] = tested on: pY99-H3 marks at SLC6A4 promoter (5-HTTLPR) and intron 2 (VNTR); experiment: ChIP with pY99-H3 antibodies and real time PCR at SLC6A4 gene in JAR cells; format: cell-based, human; details: EGF treatment
Experimental: as §1
Applicant hypothesized that ACK1 deposits pY99-H3 epigenetic marks in promoter (5-HTTLPR) and intron 2 (VNTR) of SLC6A4 gene to regulate its transcription. To test this hypothesis, applicant performed chromatin immunoprecipitation (ChIP) with pY99-H3 antibodies followed by real time PCR for primers corresponding to promoter (5-HTTLPR) and intron 2 (VNTR) of SLC6A4 gene.

B1: EGF: EGF ligand used to activate ACK1 (protein, UniProt P01133 23-1207, looked up)
Pro-epidermal growth factor: PQHWSCPEGTLAGNGNSTCVGPAPFLIFSHGNSIFRIDTEGTNYEQLVVDAGVSVIMDFHYNEKRIYWVDLERQLLQRVFLNGSRQERVCNIEKNVSGMAINWINEEVIWSNQQEGIITVTDMKGNNSHILLSALKYPANVAVDPVERFIFWSSEVAGSLYRADLDGVGVKALLETSEKITAVSLDVLDKRLFWIQYNREGSNSLICSCDYDGGSVHISKHPTQHNLFAMSLFGDRIFYSTWKMKTIWIANKHTGKDMVRINLHSSFVPLGELKVVHPLAQPKAEDDTWEPEQKLCKLRKGNCSSTVCGQDLQSHLCMCAEGYALSRDRKYCEDVNECAFWNHGCTLGCKNTPGSYYCTCPVGFVLLPDGKRCHQLVSCPRNVSECSHDCVLTSEGPLCFCPEGSVLERDGKTCSGCSSPDNGGCSQLCVPLSPVSWECDCFPGYDLQLDEKSCAASGPQPFLLFANSQDIRHMHFDGTDYGTLLSQQMGMVYALDHDPVENKIYFAHTALKWIERANMDGSQRERLIEEGVDVPEGLAVDWIGRRFYWTDRGKSLIGRSDLNGKRSKIITKENISQPRGIAVHPMAKRLFWTDTGINPRIESSSLQGLGRLVIASSDLIWPSGITIDFLTDKLYWCDAKQSVIEMANLDGSKRRRLTQNDVGHPFAVAVFEDYVWFSDWAMPSVMRVNKRTGKDRVRLQGSMLKPSSLVVVHPLAKPGADPCLYQNGGCEHICKKRLGTAWCSCREGFMKASDGKTCLALDGHQLLAGGEVDLKNQVTPLDILSKTRVSEDNITESQHMLVAEIMVSDQDDCAPVGCSMYARCISEGEDATCQCLKGFAGDGKLCSDIDECEMGVPVCPPASSKCINTEGGYVCRCSEGYQGDGIHCLDIDECQLGEHSCGENASCTNTEGGYTCMCAGRLSEPGLICPDSTPPPHLREDDHHYSVRNSDSECPLSHDGYCLHDGVCMYIEALDKYACNCVVGYIGERCQYRDLKWWELRHAGHGQQQKVIVVAVCVVVLVMLLLLSLWGAHYYRTQKLLSKNPKNPYEESSRDVRSRRPADTEDGMSSCPQPWFVVIKEHQDLKNGGQPVAGEDGQAADGSMQPTSWRQEPQLCGMGTEQGCWIPVSSDKGSCPQVMERSFHMPSYGTQTLEGGVEKPHSLLSANPLWQQRALDPPHQMELTQ
modifications: Pro-epidermal growth factor
With B1 the “SLC6A4 mRNA levels” value (SLC6A4 mRNA) was “significant increase in SLC64A mRNA levels”, the “histone H3 Tyr99-phosphorylation” value [1] was “significant upregulation of histone H3 Tyr99-phosphoryation” and the “endogenous H3 Tyr99-phosphorylation” value [2] was “significant upregulation in endogenous H3 Tyr99-phosphorylation”. The “ACK1 activation (phosphorylation)” value (ACK1) was “robust ACK1 activation” and the “deposition of pY99-H3 marks at promoter (5-HTTLPR) and intron 2 (VNTR) of SLC6A4 gene” value [3] was “significant increase in deposition of pY99-H3 marks”.
